This passage reports Km results from publication PMC4081127.

Substrate in the data set: C[C@@](O)(CCO)CC(=O)O
Put plainly: purified protein. Conditions: pH 8.5; 55.0 °C.

B1: Ta1305 (mevalonate-3-kinase) (Thermoplasma acidophilum DSM 1728) (protein)
chain: MTYRSIGSTAYPTIGVVLLGGIANPVTRTPLHTSAGIAYSDSCGSIRSETRIYADEATHIYFNGTESTDDNRSVRRVLDRYSSVFEEAFGTKTVSYSSQNFGILSGSSDAGAASIGAAILGLKPDLDPHDVENDLRAVSESAGRSLFGGLTITWSDGFHAYTEKILDPEAFSGYSIVAFAFDYQRNPSDVIHQNIVRSDLYPARKKHADEHAHMIKEYAKTNDIKGIFDLAQEDTEEYHSILRGVGVNVIRENMQKLISYLKLIRKDYWNAYIVTGGSNVYVAVESENADRLFSIENTFGSKKKMLRIVGGAWHRRPE
One may read the Km as the concentration of substrate that gives half-maximal velocity. Take B1: the Km was 97 ± 6 µM.
